The values that follow come from PMC6424025, “Human DNA polymerase delta is a pentameric holoenzyme with a dimeric p12 subunit” (Life Science Alliance, 2019).

In data set [1] the target is PCNA (Homo sapiens) (UniProt P12004). The settings on record: cited from earlier work.
Data set [2] shares this target. The settings on record: cited from earlier work. The source holds these as a separate data set.
Data set [3] concerns the molecule itself. Put plainly: native gel or EMSA; 12% native PAGE, 80 V for 5 h at 4°C, 25 mM Tris base, 192 mM glycine, pH 8.8, Coomassie staining; migration compared with carbonic anhydrase or with the mutant. On the technique in general: Mobility shift assays separate free from complexed probe on a gel.
Data set [4] has as its target T1, human PCNA, wild type, purified (human, UniProt P12004 1-261).
T1 construct: Proliferating cell nuclear antigen, human; amplified from cDNA of HeLa total RNA; Treated as a trimer in the ITC analysis; also called hPCNA; proliferating cell nuclear antigen; source: E. coli BL21 DE3, purified (expressed as GST fusion, glutathione-sepharose)
Put plainly: ITC; p12 (10 μM) in the cell, PCNA (120 μM) in the syringe, 25°C, 20 mM Hepes pH 7.4, 150 mM NaCl, single-site model; p12 taken as a dimer and PCNA as a trimer. Conditions: both partners purified.

Data set [5] concerns the molecule itself. The data set can be described thus: cross-linking; 1-5 μg of protein in 20 mM Hepes pH 7.5, 0.5% formaldehyde, 30 min at 25°C, 12% SDS-PAGE, Coomassie.
Data set [6] deals with the molecule itself. The data set can be described thus: ITC; p12 (10 μM) in the cell, p12 (120 μM) in the syringe, 30°C, 20 mM Hepes pH 7.4, 150 mM NaCl, single-site model; dimer to monomers.

Read-outs that look alike come from different tables or passages of the source.

Sequence of PCNA (Homo sapiens) (P12004 whole entry): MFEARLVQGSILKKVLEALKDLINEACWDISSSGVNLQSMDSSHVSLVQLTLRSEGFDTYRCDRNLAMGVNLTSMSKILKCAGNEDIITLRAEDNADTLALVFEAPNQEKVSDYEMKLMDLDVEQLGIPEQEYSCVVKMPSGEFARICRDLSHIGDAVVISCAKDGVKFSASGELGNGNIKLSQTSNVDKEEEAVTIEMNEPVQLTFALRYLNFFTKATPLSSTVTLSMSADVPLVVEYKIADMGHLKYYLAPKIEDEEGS
T1 sequence (P12004 whole entry, the tested form may be a part): as the sequence (P12004 whole entry) above

In general, Kd refers to the concentration at which binding is half-saturated. In the case of “DNA polymerase delta core (from UniProt P28340)”, the dissociation constant (Kd) in data set [1] is 73 nM.

For the molecule “DNA polymerase delta holoenzyme (from UniProt P28340)”, the Kd in data set [2] is 7.1 nM.

B1: Cdm1 of Schizosaccharomyces pombe, wild type, purified (natural protein, S. pombe, UniProt O59835 1-160, looked up)
chain: MKKRTTQAKKSGQNTNIRDVFPHVVRSNSSQSHIGKKVSSEQSPTPDVTITTKTLDERIKEDDELSKEVEEAWNQIMAERISEPIHCENITKVEFILHHFDTTARYGPYLGMTRMQRWKRAKNFNLNPPETVGKILMLEEADEENRKRESLFYDLQTIPG
notes: Cdm1, fourth subunit of DNA polymerase delta, S. pombe; 160 aa, 18.6 kD; PCR-amplified from genomic DNA; also called wild-type Cdm1; source: E. coli BL21 DE3, purified (bacterial overexpression from pNA716)
Regarding B1, in data set [3], the binding result is given as “binds”.

B2: p12 subunit of human DNA polymerase delta, wild type, purified, GST tag cleaved off (natural protein, UniProt Q9HCU8 1-107, looked up)
chain: MGRKRLITDSYPVVKRREGPAGHSKGELAPELGEEPQPRDEEEAELELLRQFDLAWQYGPCTGITRLQRWCRAKQMGLEPPPEVWQVLKTHPGDPRFQCSLWHLYPL
notes: DNA polymerase delta subunit 4 (p12), human; PCR product from pCOLA-hPold234; also called untagged p12; wild-type p12; source: E. coli BL21 DE3, purified (glutathione-sepharose; GST cleaved by PreScission protease); not shown: GST, N-terminal, cleaved
The stoichiometry N is the number of molecules, sites or subunits per partner or assembly. Consider B2, for which the Kd was 10000 nM in data set [4] and around 146 nM in data set [6]. Moreover, the results for the “stoichiometry N” value in data set [5] and in data set [6] were 2 and around 0.6, respectively. In addition, in data set [6], the dH is -1.82 kcal/mol.

B3: p12 L104A, Y105A mutant, purified, GST tag cleaved off (natural protein, human, UniProt Q9HCU8 1-107, looked up)
chain: MGRKRLITDSYPVVKRREGPAGHSKGELAPELGEEPQPRDEEEAELELLRQFDLAWQYGPCTGITRLQRWCRAKQMGLEPPPEVWQVLKTHPGDPRFQCSLWHAAPL
notes: DNA polymerase delta subunit 4 (p12), human; PCR product from pCOLA-hPold234; also called PIP-motif p12 mutant; source: E. coli BL21 DE3, purified (glutathione-sepharose; GST cleaved by PreScission protease); not shown: GST, N-terminal, cleaved
As to B3, the “stoichiometry N” value in data set [5] was determined as 2.
